Experimental findings from patent publication US20230138047A1, “ANTI-CLAUDIN-1 MONOCLONAL ANTIBODIES FOR THE PREVENTION AND TREATMENT OF FIBROTIC DISEASES” (Université de Strasbourg, priority 2019, published 2023) are described below.

Test [1] addresses T1, CLDN1 expressed on RPTEC/TERT1 cells (Homo sapiens, UniProt O95832).
T1 construct: endogenous in cells; host or cells: RPTEC/TERT1
T1 sequence (O95832 1-211): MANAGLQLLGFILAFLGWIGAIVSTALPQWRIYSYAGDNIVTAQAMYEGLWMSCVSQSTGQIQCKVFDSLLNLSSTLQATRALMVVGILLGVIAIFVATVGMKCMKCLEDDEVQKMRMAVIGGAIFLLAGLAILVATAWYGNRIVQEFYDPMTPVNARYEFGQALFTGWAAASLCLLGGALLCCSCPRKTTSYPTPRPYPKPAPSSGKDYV
The test is described as follows: Flow cytometry binding study on RPTEC/TERT1 kidney cells. As to the method:
(§1) Cell Lines. The kidney cancer cell line RPTEC/TERT1 and lung cancer cell line A549, both originally from ATCC, were obtained from IGBMC in a collaboration with Dr. Irwin Davidson and Dr. Izabella Sumara, respectively. Both cell lines were cultured according to provider's instructions: the RPTEC/TERT1 kidney cancer cells were grown in ATCC-formulated DMEM:F12 Medium supplemented with hTERT RPTEC Growth Kit and 0.1 mg/mL G418. The A549 lung cancer cells were grown in ATCC-formulated F-12K Medium supplemented with 10% fetal bovine serum.
(§2) Binding Studies. Cells were de-attached using a solution of EDTA (4 mM) and re-suspended in PBS containing 1% FBS at 4° C. Then, 150,000 cells were incubated with increasing concentrations of the humanized H3L3 CLDN1-specific mAb (see WO/2017/162678) and the binding signals were read by flow cytometry after incubation with PE-labelled anti-human using a dilution of 1:100 and analyzed with Cytoflex and FlowJo V10. Two washes with PBS containing 1% FBS were performed after every antibody incubation. A binding curve for each cell line was built using the PE median fluorescence intensity (MFI) and the Kd of the interaction was calculated by applying the Michaelis-Menten mathematical model in R 3.5.1.

For test [2], the target named is T2, CLDN1 expressed on A549 cells (Homo sapiens, UniProt O95832).
T2 construct: endogenous in cells; host or cells: A549
T2 sequence (O95832 1-211): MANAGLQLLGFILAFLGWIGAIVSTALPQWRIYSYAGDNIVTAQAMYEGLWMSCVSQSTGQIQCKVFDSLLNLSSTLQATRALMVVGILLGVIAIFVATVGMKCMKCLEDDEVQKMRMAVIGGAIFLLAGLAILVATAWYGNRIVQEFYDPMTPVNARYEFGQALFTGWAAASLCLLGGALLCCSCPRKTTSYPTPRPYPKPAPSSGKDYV
In words: Flow cytometry binding study on A549 lung cells. Further details: unit not given here. As to the method: as §1, §2
(In flow cytometry, cells or beads pass a laser one at a time.)

Another test concerns TGF-β signalling. The test is described as follows: TGF-β signaling reporter assay in A549 cells. Type of test: cell-based. Particulars: 50 μg/mL for 3 hours, TGF-β 10 ng/mL. As to the method:
TGF-β Signaling Reporter Assay. A549 cells were transfected with TGF-β signalling reporter plasmid pGLA4.48[luc2P/SBE/Hygro] (Promega) using Fugene according to the manufacturer's instructions. Following transfection, the cells were supplemented with fresh medium containing control or CLDN1-specific mAb (50 μg/mL) for 3 hours at 37° C. Fresh medium was supplemented to the cells containing TGF-β (10 ng/mL) (Sigma) for 3 hours at 37° C. The plate was incubated for 15 minutes at room temperature followed by addition of ONE-Glo substrate (Promega) for 3 minutes at room temperature. Luminescence of the supernatants was read using a Berthold microplate reader.
Background: Reporter assays use an easily measured gene product as a stand-in for the process of interest.

Test [3] addresses T3, CLDN1 on HREpic (PECs model) (Homo sapiens, UniProt O95832).
T3 construct: Human Renal Epithelial Cells (HREpic), which are primary cell isolated from human kidney; host or cells: HREpic (Human Renal Epithelial Cells), TNFα-treated
T3 sequence (O95832 1-211): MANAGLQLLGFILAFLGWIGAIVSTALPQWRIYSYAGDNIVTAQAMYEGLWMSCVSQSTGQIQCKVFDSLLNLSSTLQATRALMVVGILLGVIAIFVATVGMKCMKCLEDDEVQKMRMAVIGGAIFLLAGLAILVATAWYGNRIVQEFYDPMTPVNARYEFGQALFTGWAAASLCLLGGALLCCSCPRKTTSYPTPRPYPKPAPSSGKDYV
The test is described as follows: Flow cytometry binding on Human Renal Epithelial Cells (HREpic). Particulars: 10 μg/mL, 24 hours after TNFα 10 ng/mL. As to the method: (§3) Cells. Human Renal Epithelial Cells (HREpic) were purchased from ScienCell Research Laboratories and grown in Epithelial Cell Medium according to manufacturer's instructions.
Flow cytometry. H3L3 binding and expression of human CLDN1 in HREpic was analyzed by flow cytometry 24 hours after TNFα treatment (10 ng/mL). Briefly, 200,000 cells per conditions were stained using H3L3 (10 μg/mL) or Mota (10 μg/mL) used as negative control. Primary antibodies were detected using an Alexa fluor 647-conjugated human-specific secondary antibody. Data were acquired using Cytoflex B2R2V0 (Beckman Coulter) and analyzed using CytExpert 2.1 and FlowJo v10. CLDN1 expression is shown as the difference of the mean fluorescence intensities of cells stained with H3L3 and cells stained with Mota.

The subject of test [4] is Human Renal Epithelial Cells (HREpic). In words: HREpic 3D-culture proliferation/viability (ATP quantification). Type of test: cell-based. Particulars: TNFα 10 ng/mL, 10 μg/mL antibody, 6 days, preliminary data. As to the method: as §3
H3L3 Treatment. For 2D-culture, cells were seeded in 24-well plates coated with Poly-L-Lysine at a cell density of 5.10^4 cells/well. After 24 hours, the cells were treated with TNFα 10 ng/mL and Mota (10 μg/mL) or H3L3 (10 μg/mL). After 3 days, the cells were again treated with TNFα and antibody for 3 more days. After 6 days of treatment in total, the cells were lysed to measure gene expression by qRT-PCR. For 3D-culture, cells were seeded in 96-well ultra-low attachment plates (Corning, Sigma Aldrich, France) at a cell density of 5×10^3 cells/well. The same treatment as described above was applied for 6 days. Cell viability was assessed by ATP quantification using CellTitreGlo (Promega) according to manufacturer's instructions.
Statistics. Data are presented as the mean±s.d. and were analyzed by the unpaired Student's t-test or the two-tailed Mann-Whitney test as indicated after determination of distribution by the Shapiro-Wilk normality test. All experiments were performed at least in triplicates for 2D-culture and quadruplicates for 3D-culture. Data are considered as significant at p<0.05. Statistical analyzes for in vitro experiments were performed with GraphPad Prism 6 software.

Test [5] has as its system Adriamycin-induced nephropathy. In words: Adriamycin-induced nephropathy model. Type of test: in vivo, BALB/c mice. Conditions: 250 μg/mouse i.p. twice weekly, 27 days; versus control group and valproic acid group. As to the method:
The Adriamycin-induced nephropathy (ADR) model is a well-characterized disease model for chronic kidney disease and mirrors human kidney disease caused by primary focal segmental glomerulosclerosis (FSGS). The Adriamycin-induced nephropathy is a mouse model the mimics human FSGS (Focal Segmental Glomerulosclerosis). An efficacy study was performed at SMC lab (Tokyo, Japan) in accordance with local standards of ethics and animal care. Induction of Adriamycin-induced nephropathy model started on Day 0, when mice were intravenously administered adriamycin (doxorubicin hydrochloride, Wako Pure Chemical Industries, Ltd., Japan) in 0.9% saline at a dose of 13 mg/kg, in a volume of 10 mL/kg.
Groups of eight Adriamycin-induced nephropathic male BALB/c mice were administered either vehicle [saline], anti-CLDNA 1 mAb H3L3 (250 μg/mouse, twice weekly) intraperitoneally, or VPA (=valproic acid, provided at 0.4% in the drinking water) as a positive control for 27 days. Serum creatinine and BUN (blood urea nitrogen) was measured by FUJI DRI-CHEM 7000 (Fujifilm Corporation, Japan).

B1: H3L3: humanized anti-Claudin-1 monoclonal antibody, two VH of SEQ ID NO: 3 and two VL of SEQ ID NO: 6 (antibody, V domains shown)
VH: QVQLVESGGGVVQPGRSLRLSCLGSGFSFSSYGMNWVRQAPGKGLEWVASISPSGSYFYYADSVKGRFTISRDNSKNTLYLQMTSLRAEDTAIYYCARLPGFNPPFDHWGQGTLVTVSS
VL: DIQMTQSPSSLSASVGDRVTITCKASQNVGGNVDWYQWKPGKAPKLLIYGASNRYTGVPDRFRGSGSGTDFTLTISSLQPEDVATYYCLQYKNNPWTFGGGTKVEIK
modifications: humanized variable heavy chain H3; humanized variable light chain L3
As to B1, the “concentration saturating the epitope” value in test [1] came to 50 µg/mL. Besides, the “concentration saturating the epitope” value in test [2] was determined as 20. The TGF-β reporter activity entry in the test on TGF-β signalling was “significant reduction”. Besides, the “binding to PECs CLDN1” value in test [3] is “binds to PECs CLDN1”. For the same molecule, in test [4], the cell proliferation/viability entry is listed as “slight decrease”. In test [5], the “serum BUN” value was “non-significant but pronounced reduction” and the serum creatinine entry is “non-significant but pronounced reduction”.
